19 molecules from patent US20140056895 (published 2014) can be followed below.

As a reminder, the Kd is the constant that tells how readily two partners part at equilibrium. Read a high Kd as a looser complex.

Experiment [1] concerns the target T1, IL4 (human, UniProt P05112).
T1 chain: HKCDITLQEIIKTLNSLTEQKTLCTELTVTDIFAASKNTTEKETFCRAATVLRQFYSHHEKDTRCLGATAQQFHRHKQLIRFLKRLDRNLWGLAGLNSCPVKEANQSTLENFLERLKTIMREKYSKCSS
The experiment is described as follows: SPR.

The target in experiment [2] is T1, IL4. Briefly: SPR.
Experiment [3] deals with T1, IL4. Briefly: SPR. A general note: Surface plasmon resonance follows binding to a sensor surface in real time, without labels.
The target in experiment [4] is T1, IL4. The experiment is described as follows: SPR.
The target in experiment [5] is T1, IL4. The experiment is described as follows: SPR.
For experiment [6], the target named is T2, IL13 (human, UniProt P35225). Briefly: SPR.
Experiment [7] addresses T2, IL13. The experiment is described as follows: SPR. This is another data set of the same source.
Experiment [8] deals with T2, IL13. Briefly: SPR. The source holds these as a separate data set.
Experiment [9] concerns the target T2, IL13. Briefly: SPR. The source holds these as a separate data set.
Experiment [10] concerns the target T2, IL13. The experiment is described as follows: SPR. The source holds these as a separate data set.
The target in experiment [11] is T2, IL13.
Experiment [12] deals with T1, IL4.
In the next experiment the target is EGFR (human, UniProt P00533). The experiment is described as follows: SPR.

Changes are numbered by the printed parent chain. Numbers in names are those of the source. Where “and” joins values, the source holds several entries; their conditions need not be identical. Identical values can stand only once. Like-named read-outs stand apart in the source and are kept apart here.

T2 sequence (P35225 35-146): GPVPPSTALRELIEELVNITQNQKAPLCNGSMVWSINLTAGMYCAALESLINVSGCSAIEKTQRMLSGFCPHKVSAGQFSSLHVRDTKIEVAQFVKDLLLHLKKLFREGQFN

B1: CODV-Ig LC4:HC4, IL4 arm (antibody, V domains shown)
VH: QVQLQQSGPELVKPGASVKISCKASGYSFTSYWIHWIKQRPGQGLEWIGMIDPSDGETRLNQRFQGRATLTVDESTSTAYMQLRSPTSEDSAVYYCTRLKEYGNYDSFYFDVWGAGTLVTVSS
VL: DIQMTQSPASLSVSVGDTITLTCHASQNIDVWLSWFQQKPGNIPKLLIYKASNLHTGVPSRFSGSGSGTGFTLTISSLQPEDIATYYCQQAHSYPFTFGGGTKLEIKR
In the case of B1, the Kd with IL4 [1] was 9.14 pM.

B2: CODV-Ig Fc cysteine variants (602, 603), IL4 arm (antibody, V domains shown)
VH: B1 VH
VL: B1 VL
Regarding B2, the Kd in the experiment with IL4 [2] is 4 pM and 10 pM.

B3: CODV 706, IL4 arm (antibody, V domains shown)
VH: B1 VH with G44C
VL: B1 VL with G100C
B3 displayed a Kd with IL4 [3] of 8 pM.

B4: parental anti-IL4 mAb (8D4 humanized) (antibody, V domains shown)
VH: B1 VH
VL: B1 VL
Turning to B4, binding in the experiment with IL4 [1] was characterised by a dissociation constant (Kd) of 7.83 pM. This counts as picomolar.

B5: CODV-Ig LC4:HC6, IL4 arm (antibody, V domains shown)
VH: B1 VH
VL: B1 VL
In the experiment with IL4 [1], B5 came in with a dissociation constant (Kd) of 11.1 pM.

B6: CODV-Fab 421, IL4 arm (antibody, V domains shown)
VH: B1 VH
VL: B1 VL
In the case of B6, the Kd with IL4 [4] worked out at 0.012 nM.

B7: CODV-Ig heavy-chain template (batches 201-270, 501-508, 704, 801), IL4 arm (antibody, V domains shown)
VH: B1 VH
VL: B1 VL
For B7, the Kd with IL4 [3] and with IL4 [5] was 3 pM in each case.

B8: CODV-Ig heavy-chain template (batches 201-270, 501-508, 704, 801), IL13 arm (antibody, V domains shown)
VH: EVQLKESGPGLVAPGGSLSITCTVSGFSLTDSSINWVRQPPGKGLEWLGMIWGDGRIDYADALKSRLSISKDSSKSQVFLEMTSLRTDDTATYYCARDGYFPYAMDFWGQGTSVTVSS
VL: DIVLTQSPASLAVSLGQRATISCRASESVDSYGQSYMHWYQQKAGQPPKLLIYLASNLESGVPARFSGSGSRTDFTLTIDPVQAEDAATYYCQQNAEDSRTFGGGTKLEIK
On to B8, for which the Kd with IL13 [6] and with IL13 [7] was 0.025 nM throughout.

B9: CODV-Ig LC4:HC6, IL13 arm (antibody, V domains shown)
VH: B8 VH
VL: B8 VL
In turn, B9 gave a Kd in the experiment with IL13 [8] of 0.118 nM.

B10: CODV-Ig LC4:HC4, IL13 arm (antibody, V domains shown)
VH: B8 VH
VL: B8 VL
In the experiment with IL13 [8], B10 had a Kd of 0.0934 nM.

B11: parental anti-IL13 mAb (B-B13 humanized) (antibody, V domains shown)
VH: B8 VH
VL: B8 VL
With B11, in the experiment with IL13 [8], the affinity, expressed as Kd, was 0.0818 nM. This Kd and that of the molecule before are within 1.5-fold of each other.

B12: CODV-Ig Fc cysteine variants (602, 603), IL13 arm (antibody, V domains shown)
VH: B8 VH
VL: B8 VL
Consider B12, for which the Kd with IL13 [9] is 0.064 nM and 0.1 nM.

B13: CODV-Fab 421, IL13 arm (antibody, V domains shown)
VH: B8 VH
VL: B8 VL
In the experiment with IL13 [10], B13 showed a Kd of 0.048 nM.

B14: Cross-over IL4(G4S2)IL13CH1-Fc / IL13(G4S2)IL4CL (antibody)
chain 1: not shown
chain 2: DIVLTQSPASLAVSLGQRATISCRASESVDSYGQSYMHWYQQKAGQPPKLLIYLASNLESGVPARFSGSGSRTDFTLTIDPVQAEDAATYYCQQNAEDSRTFGGGTKLEIKGGGGSGGGGSDIQMTQSPASLSVSVGDTITLTCHASQNIDVWLSWFQQKPGNIPKLLIYKASNLHTGVPSRFSGSGSGTGFTLTISSLQPEDIATYYCQQAHSYPFTFGGGTKLEIKRTVAAPSVFIFPPSDEQLKSGTASVVCLLNNFYPREAKVQWKVDNALQSGNSQESVTEQDSKDSTYSLSSTLTLSKADYEKHKVYACEVTHQGLSSPVTKSFNRGEC
Regarding B14, the binding result in the experiment with IL13 [11] and with IL4 [12] was “no binding” each time.

B15: Cross-over IL4(G4S)IL13CH1-Fc / IL13(G4S2)IL4CL (antibody)
chain 1: not shown
chain 2: B14 chain 2
Regarding B15, in the experiment with IL13 [11], the binding result was “no binding”.

B16: CODV-Fab 413, EGFR arm (antibody)
chain 1: not shown
chain 2: EIVLTQSPGTLSVSPGERATLSCRASQSIGSSLHWYQQKPGQAPRLLIKYASQSLSGIPDRFSGSGSGTDFTLTISRLEPEDFAVYYCHQSSRLPHTFGQGTKVEIKGGGGGGGEIVMTQSPATLSLSPGERATLSCRASQSVSSYLAWYQQKPGQAPRLLIYDASNRATGIPARFSGSGSGTDFTLTISSLEPEDFAVYYCHQYGSTPLTFGGGTKAEIKGGGGGRTVAAPSVFIFPPSDEQLKSGTASVVCLLNNFYPREAKVQWKVDNALQSGNSQESVTEQDSKDSTYSLSSTLTLSKADYEKHKVYACEVTHQGLSSPVTKSFNRGEC
Consider B16, for which the Kd with EGFR was 42 nM.

B17: CODV-Ig 411 HC13/LC13, EGFR arm (antibody)
chain 1: not shown
chain 2: B16 chain 2
As for B17, the Kd with EGFR is 124 nM.

B18: Cross-over IL4(G4S)IL13CH1-Fc / IL13(G4S)IL4CL (antibody)
chain 1: not shown
chain 2: DIVLTQSPASLAVSLGQRATISCRASESVDSYGQSYMHWYQQKAGQPPKLLIYLASNLESGVPARFSGSGSRTDFTLTIDPVQAEDAATYYCQQNAEDSRTFGGGTKLEIKGGGGSDIQMTQSPASLSVSVGDTITLTCHASQNIDVWLSWFQQKPGNIPKLLIYKASNLHTGVPSRFSGSGSGTGFTLTISSLQPEDIATYYCQQAHSYPFTFGGGTKLEIKRTVAAPSVFIFPPSDEQLKSGTASVVCLLNNFYPREAKVQWKVDNALQSGNSQESVTEQDSKDSTYSLSSTLTLSKADYEKHKVYACEVTHQGLSSPVTKSFNRGEC
For the molecule B18, the binding result with IL13 [11] was “no binding”.

B19: Cross-over IL4(G4S2)IL13CH1-Fc / IL13(G4S)IL4CL (antibody)
chain 1: not shown
chain 2: B18 chain 2
Turning to B19, in the experiment with IL13 [11], the binding result is on record as “no binding”.
